Values of other authors as cited in patent publication US9770419B2, “Methods and compositions of camel derived products” (priority 2012, dated 2017).

Tests used:
HCV (genotype 4a) = settings: compared with human, bovine and sheep lactoferrin
[1] = tested on: colon cancer cell line, HCT-116; settings: in vitro

B1: Camel Lactoferrin: iron containing protein, molecular mass 76-80 kDa, 689 amino acids residues, isolated from camel milk (protein, UniProt Q9TUM0 20-708, looked up)
Lactotransferrin: ASKKSVRWCTTSPAESSKCAQWQRRMKKVRGPSVTCVKKTSRFECIQAISTEKADAVTLDGGLVYDAGLDPYKLRPIAAEVYGTENNPQTHYYAVAIAKKGTNFQLNQLQGLKSCHTGLGRSAGWNIPMGLLRPFLDWTGPPEPLQKAVAKFFSASCVPCVDGKEYPNLCQLCAGTGENKCACSSQEPYFGYSGAFKCLQDGAGDVAFVKDSTVFESLPAKADRDQYELLCPNNTRKPVDAFQECHLARVPSHAVVARSVNGKEDLIWKLLVKAQEKFGRGKPSGFQLFGSPAGQKDLLFKDSALGLLRISSKIDSGLYLGSNYITAIRGLRETAAEVELRRAQVVWCAVGSDEQLKCQEWSRQSNQSVVCATASTTEDCIALVLKGEADALSLDGGYIYIAGKCGLVPVLAESQQSPESSGLDCVHRPVKGYLAVAVVRKANDKITWNSLRGKKSCHTAVDRTAGWNIPMGLLSKNTDSCRFDEFLSQSCAPGSDPRSKLCALCAGNEEGQNKCVPNSSERYYGYTGAFRCLAENVGDVAFVKDVTVLDNTDGKNTEQWAKDLKLGDFELLCLNGTRKPVTEAESCHLAVAPNHAVVSRIDKVAHLEQVLLRQQAHFGRNGRDCPGKFCLFQSKTKNLLFNDNTECLAKLQGKTTYEEYLGPQYVTAIAKLRRCSTSPLLEACAFLMR
In the case of B1, the “inhibitory effect on HCV” value (HCV (genotype 4a)) is given as “higher than human, bovine and sheep lactoferrin”, the DNA damage (DNA damage) is given as “inhibit” and the antioxidant activities (DNA damage) is given as “exhibits antioxidant activities”. For the same molecule, the “proliferation of HCT-116” value [1] was “inhibit the proliferation”.
